Assay results published in publication PMC6349918, “A five-residue motif for the design of domain swapping in proteins” (Nature Communications, 2019).
Residue numbers refer to the chain shown, from its start.

B1: L1MK-Ctd (MK-Ctd with QVVAG engineered into loop1) (domain or fragment)
chain: MVPSRFEDVRVVQVVAGWRVSVKIAETEEGEVVTVKAEFDECREIGEETGIPPREVKAMVEAAARVGGWVDLKEREIKVQEG
B2: L1MK-Ctd* (L1MK-Ctd with QVVAG mutated to QVNAG) (domain or fragment)
chain: B1 chain with V15N

Molecular target: the molecule itself
Assay: SEC; MK-Ctd and its loop variants; Superdex 75 10/300 GL; 20 mM Tris-HCl, 500 mM GdnHCl, pH 8; monomer to dimer

Protein	stoichiometry N
B1	2
B2	2
